# Test results reported in IntAct's records for PubMed 23728178.
# B1: Complement factor H-related protein 1 (Homo sapiens), Q03591 (parent)
# chain: MWLLVSVILISRISSVGGEATFCDFPKINHGILYDEEKYKPFSQVPTGEVFYYSCEYNFVSPSKSFWTRITCTEEGWSPTPKCLRLCFFPFVENGHSESSGQTHLEGDTVQIICNTGYRLQNNENNISCVERGWSTPPKCRSTDTSCVNPPTVQNAHILSRQMSKYPSGERVRYECRSPYEMFGDEEVMCLNGNWTEPPQCKDSTGKCGPPPPIDNGDITSFPLSVYAPASSVEYQCQNLYQLEGNKRITCRNGQWSEPPKCLHPCVISREIMENYNIALRWTAKQKLYLRTGESAEFVCKRGYRLSSRSHTLRTTCWDGKLEYPTCAKR
# partner: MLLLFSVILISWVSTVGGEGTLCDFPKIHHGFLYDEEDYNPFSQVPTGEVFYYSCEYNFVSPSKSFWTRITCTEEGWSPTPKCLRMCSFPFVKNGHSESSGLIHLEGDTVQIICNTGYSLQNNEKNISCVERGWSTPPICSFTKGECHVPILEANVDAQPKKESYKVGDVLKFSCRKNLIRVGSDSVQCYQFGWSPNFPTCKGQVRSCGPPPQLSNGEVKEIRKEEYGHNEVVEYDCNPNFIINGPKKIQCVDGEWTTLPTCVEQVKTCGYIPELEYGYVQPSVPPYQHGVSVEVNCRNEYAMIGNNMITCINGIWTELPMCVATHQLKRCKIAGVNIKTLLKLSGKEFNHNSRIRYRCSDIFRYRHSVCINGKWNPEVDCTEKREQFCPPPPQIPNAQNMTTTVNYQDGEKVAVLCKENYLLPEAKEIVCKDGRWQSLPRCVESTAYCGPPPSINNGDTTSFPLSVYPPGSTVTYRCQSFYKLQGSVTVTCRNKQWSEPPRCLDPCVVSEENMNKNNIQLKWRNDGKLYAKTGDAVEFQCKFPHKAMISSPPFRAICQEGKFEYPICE
# B2: Complement factor H-related protein 1 (Homo sapiens), Q03591 (parent)
# chain: B1 chain
# Variants of: B1
# Settings: with fhr5_human CFHR5, Q9BXR6
row,Variant,effect of a mutation on the interaction
1,H157Y;L159V;E175Q,with no effect

# Variants of: B2
# Settings: with fhr2_human CFHR2, P36980
row,Variant,effect of a mutation on the interaction
1,H157Y;L159V;E175Q,with no effect
